# In the supplement of paper PMC9112550, “Optimization of the antimicrobial peptide Bac7 by deep mutational scanning” (BMC Biology, 2022):
# Test system: Escherichia coli TOP10
# Assay: shrunken log2 fold change of peptide-encoding DNA abundance (4.5 h post-induction vs induction); higher = less antimicrobial activity (less host growth inhibition)
# Conditions: time post-induction: 4.5 h; library: site-saturation at positions 5, 18, 19, 20
# 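Further: peptides expressed intracellularly from a pBAD plasmid library in pooled LB shake-flask culture, induced with 0.3% L-arabinose, DNA abundance read by NGS, three biological replicates, DESeq2 with apeglm shrinkage.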
row,Sequence,shrunken log2 fold change
1,RRIRYRPPRLPRPRPRPWIDPRP,-0.274
2,RRIRSRPPRLPRPRPRPSCTPRP,-0.0382
3,RRIRYRPPRLPRPRPRPIDLPRP,-0.0513
4,RRIRCRPPRLPRPRPRPFQNPRP,-0.0078
5,RRIRARPPRLPRPRPRPEVAPRP,0.214
6,RRIRQRPPRLPRPRPRPKCLPRP,0.0772
7,RRIRYRPPRLPRPRPRPTHWPRP,0.272
8,RRIRNRPPRLPRPRPRPREWPRP,-0.00528
9,RRIRHRPPRLPRPRPRPHAHPRP,-0.072
10,RRIRRRPPRLPRPRPRPALGPRP,0.269
11,RRIRARPPRLPRPRPRPSSHPRP,-0.471
12,RRIRIRPPRLPRPRPRPEQLPRP,-0.148
13,RRIRLRPPRLPRPRPRPDFVPRP,-0.108
14,RRIRGRPPRLPRPRPRPKQWPRP,0.28
15,RRIRGRPPRLPRPRPRPYLMPRP,-0.0538
16,RRIRERPPRLPRPRPRPQGQPRP,-0.0238
17,RRIRLRPPRLPRPRPRPEHYPRP,-0.00385
18,RRIRHRPPRLPRPRPRPEDPPRP,0.0512
19,RRIRERPPRLPRPRPRPFATPRP,0.119
20,RRIRQRPPRLPRPRPRPALYPRP,0.172
21,RRIRLRPPRLPRPRPRPEFMPRP,-0.109
22,RRIRFRPPRLPRPRPRPLYMPRP,-0.921
23,RRIRYRPPRLPRPRPRPNQVPRP,-0.0141
24,RRIRERPPRLPRPRPRPSCVPRP,-0.356
25,RRIRERPPRLPRPRPRPFYCPRP,0.0826

row,Sequence,shrunken log2 fold change
1,RRIRMRPPRLPRPRPRPWFVPRP,-0.283
2,RRIRERPPRLPRPRPRPCTGPRP,-0.264
3,RRIRSRPPRLPRPRPRPMDKPRP,0.0107
4,RRIRNRPPRLPRPRPRPKMFPRP,-0.00426
5,RRIRTRPPRLPRPRPRPVQEPRP,0.207
6,RRIRKRPPRLPRPRPRPIYVPRP,0.0461
7,RRIRDRPPRLPRPRPRPSDFPRP,0.259
8,RRIRVRPPRLPRPRPRPNVGPRP,0.00661
9,RRIRERPPRLPRPRPRPMWHPRP,0.0749
10,RRIRGRPPRLPRPRPRPYQDPRP,0.0178
11,RRIRFRPPRLPRPRPRPCPMPRP,-0.00789
12,RRIRTRPPRLPRPRPRPWQRPRP,0.157
13,RRIRYRPPRLPRPRPRPFHNPRP,-0.451
14,RRIRSRPPRLPRPRPRPLSIPRP,-0.447
15,RRIRWRPPRLPRPRPRPSWSPRP,0.862
16,RRIRFRPPRLPRPRPRPWCTPRP,-0.288
17,RRIRFRPPRLPRPRPRPDRVPRP,0.0813
18,RRIRERPPRLPRPRPRPETPPRP,0.784
19,RRIRSRPPRLPRPRPRPMEAPRP,-0.00776
20,RRIRPRPPRLPRPRPRPHYIPRP,-0.586
21,RRIRWRPPRLPRPRPRPWWMPRP,0.388
22,RRIRSRPPRLPRPRPRPIEIPRP,-0.00473
23,RRIRNRPPRLPRPRPRPCCMPRP,-0.0549
24,RRIRGRPPRLPRPRPRPCNHPRP,-0.402
25,RRIRCRPPRLPRPRPRPFVAPRP,-0.159

row,Sequence,shrunken log2 fold change
1,RRIRYRPPRLPRPRPRPDSNPRP,-2.93
2,RRIRRRPPRLPRPRPRPRLFPRP,0.593
3,RRIRERPPRLPRPRPRPMFIPRP,-0.256
4,RRIRNRPPRLPRPRPRPTNQPRP,-0.281
5,RRIRERPPRLPRPRPRPESPPRP,0.0699
6,RRIRVRPPRLPRPRPRPDKRPRP,0.0226
7,RRIRFRPPRLPRPRPRPNSLPRP,-0.189
8,RRIRSRPPRLPRPRPRPAGSPRP,-0.209
9,RRIRRRPPRLPRPRPRPHGIPRP,0.0963
10,RRIRWRPPRLPRPRPRPLTPPRP,0.412
11,RRIRKRPPRLPRPRPRPFGPPRP,0.325
12,RRIRDRPPRLPRPRPRPQKQPRP,0.086
13,RRIRHRPPRLPRPRPRPNWMPRP,0.00348
14,RRIRPRPPRLPRPRPRPNHEPRP,-0.419
15,RRIRNRPPRLPRPRPRPVWMPRP,-0.0917
16,RRIRERPPRLPRPRPRPWNIPRP,-0.308
17,RRIRHRPPRLPRPRPRPQNEPRP,-0.133
18,RRIRLRPPRLPRPRPRPRYYPRP,-0.103
19,RRIRRRPPRLPRPRPRPRAHPRP,0.592
20,RRIRLRPPRLPRPRPRPDWDPRP,-0.183
21,RRIRMRPPRLPRPRPRPTPSPRP,1.18
22,RRIRSRPPRLPRPRPRPDAEPRP,0.984
23,RRIRQRPPRLPRPRPRPFIDPRP,-0.0223
24,RRIRLRPPRLPRPRPRPQQRPRP,-0.299
25,RRIRCRPPRLPRPRPRPAHVPRP,0.019

row,Sequence,shrunken log2 fold change
1,RRIRSRPPRLPRPRPRPYHNPRP,-1.22
2,RRIRHRPPRLPRPRPRPFAVPRP,-1.08
3,RRIRSRPPRLPRPRPRPMQVPRP,-0.064
4,RRIRPRPPRLPRPRPRPQEDPRP,-0.0602
5,RRIRERPPRLPRPRPRPPRQPRP,0.26
6,RRIRDRPPRLPRPRPRPLMIPRP,0.072
7,RRIRLRPPRLPRPRPRPAKGPRP,-0.00764
8,RRIRNRPPRLPRPRPRPQTEPRP,-0.219
9,RRIRSRPPRLPRPRPRPKITPRP,-0.325
10,RRIRARPPRLPRPRPRPCMFPRP,0.0445
11,RRIRGRPPRLPRPRPRPFHTPRP,-0.161
12,RRIRQRPPRLPRPRPRPTNWPRP,0.146
13,RRIRRRPPRLPRPRPRPFEIPRP,-0.00184
14,RRIRIRPPRLPRPRPRPIWIPRP,-0.269
15,RRIRPRPPRLPRPRPRPVIFPRP,-0.11
16,RRIRSRPPRLPRPRPRPFCAPRP,0.0376
17,RRIRLRPPRLPRPRPRPHSAPRP,-0.202
18,RRIRNRPPRLPRPRPRPWTWPRP,-0.0415
19,RRIRLRPPRLPRPRPRPKYIPRP,-0.603
20,RRIRPRPPRLPRPRPRPHDDPRP,-0.421
21,RRIRFRPPRLPRPRPRPCLGPRP,-0.201
22,RRIRFRPPRLPRPRPRPSSQPRP,-0.458
23,RRIRMRPPRLPRPRPRPLDNPRP,0.957
24,RRIRKRPPRLPRPRPRPSTGPRP,-0.284
25,RRIRWRPPRLPRPRPRPSQFPRP,-0.196

row,Sequence,shrunken log2 fold change
1,RRIRKRPPRLPRPRPRPFCGPRP,0.345
2,RRIRVRPPRLPRPRPRPVDAPRP,0.485
3,RRIRPRPPRLPRPRPRPPCIPRP,0.00615
4,RRIRWRPPRLPRPRPRPWWDPRP,0.0125
5,RRIRFRPPRLPRPRPRPNTTPRP,-0.0257
6,RRIRFRPPRLPRPRPRPNKFPRP,-0.783
7,RRIRKRPPRLPRPRPRPSFPPRP,-0.0425
8,RRIRKRPPRLPRPRPRPRDMPRP,0.0936
9,RRIRYRPPRLPRPRPRPQRDPRP,-0.256
10,RRIRVRPPRLPRPRPRPVLQPRP,0.164
11,RRIRFRPPRLPRPRPRPDSVPRP,-0.54
12,RRIRDRPPRLPRPRPRPYSMPRP,-0.0516
13,RRIRLRPPRLPRPRPRPLFPPRP,-0.203
14,RRIRIRPPRLPRPRPRPFVAPRP,-0.158
15,RRIRYRPPRLPRPRPRPGHDPRP,-0.0736
16,RRIRHRPPRLPRPRPRPNDTPRP,-0.933
17,RRIRSRPPRLPRPRPRPIIEPRP,-0.114
18,RRIRQRPPRLPRPRPRPYRVPRP,-0.00926
19,RRIRRRPPRLPRPRPRPQVFPRP,0.408
20,RRIRKRPPRLPRPRPRPRYYPRP,-0.248
21,RRIRVRPPRLPRPRPRPVNQPRP,-0.0283
22,RRIRGRPPRLPRPRPRPTSWPRP,0.782
23,RRIRHRPPRLPRPRPRPQNLPRP,-0.00783
24,RRIRGRPPRLPRPRPRPVARPRP,0.58
25,RRIRWRPPRLPRPRPRPPCLPRP,0.186

row,Sequence,shrunken log2 fold change
1,RRIRERPPRLPRPRPRPLRSPRP,0.474
2,RRIRPRPPRLPRPRPRPSVTPRP,-0.385
3,RRIRHRPPRLPRPRPRPAFDPRP,-0.00345
4,RRIRKRPPRLPRPRPRPHWEPRP,-0.102
5,RRIRDRPPRLPRPRPRPILEPRP,-0.0842
6,RRIRIRPPRLPRPRPRPIGEPRP,0.0399
7,RRIRPRPPRLPRPRPRPMPTPRP,0.22
8,RRIRARPPRLPRPRPRPPKQPRP,0.0504
9,RRIRSRPPRLPRPRPRPDIRPRP,-0.0108
10,RRIRQRPPRLPRPRPRPISWPRP,-0.12
11,RRIRPRPPRLPRPRPRPKMEPRP,-0.0537
12,RRIRNRPPRLPRPRPRPMQKPRP,0.0161
13,RRIRMRPPRLPRPRPRPLREPRP,3.88
14,RRIRSRPPRLPRPRPRPPMHPRP,0.25
15,RRIRQRPPRLPRPRPRPAKIPRP,0.00963
16,RRIRNRPPRLPRPRPRPDVHPRP,0.0115
17,RRIRPRPPRLPRPRPRPEPKPRP,2.44
18,RRIRSRPPRLPRPRPRPHTAPRP,-0.175
19,RRIRIRPPRLPRPRPRPDKGPRP,0.0101
20,RRIRCRPPRLPRPRPRPGHYPRP,-0.0646
21,RRIRFRPPRLPRPRPRPQHDPRP,-0.394
22,RRIRYRPPRLPRPRPRPYMMPRP,-0.337
23,RRIRKRPPRLPRPRPRPESVPRP,0.234
24,RRIRERPPRLPRPRPRPMEKPRP,-0.0775
25,RRIRNRPPRLPRPRPRPSLGPRP,0.0885
